Experimental data taken from paper PMC6153294 (The Journal of Biological Chemistry, 2018).

Biological target: T1, recombinant FGFR1c extracellular domain protein (Homo sapiens, UniProt P11362)
T1 construct: FGF receptor 1, 'c' splice isoform, human, extracellular domain; also called human FGFR1c
Assay: SPR; kinetic-binding assay on Biacore T200: His-tagged human β-Klotho and FGFR1c captured (about 40 RU and 60 RU) on immobilised mouse anti-His antibody (CM5); 39F7 (100 nM) and FGF21 (500 nM) injected in PBS, 0.1 mg/ml BSA, 0.005% Surfactant P20
Conditions: both partners purified

T1 sequence (P11362 22-376): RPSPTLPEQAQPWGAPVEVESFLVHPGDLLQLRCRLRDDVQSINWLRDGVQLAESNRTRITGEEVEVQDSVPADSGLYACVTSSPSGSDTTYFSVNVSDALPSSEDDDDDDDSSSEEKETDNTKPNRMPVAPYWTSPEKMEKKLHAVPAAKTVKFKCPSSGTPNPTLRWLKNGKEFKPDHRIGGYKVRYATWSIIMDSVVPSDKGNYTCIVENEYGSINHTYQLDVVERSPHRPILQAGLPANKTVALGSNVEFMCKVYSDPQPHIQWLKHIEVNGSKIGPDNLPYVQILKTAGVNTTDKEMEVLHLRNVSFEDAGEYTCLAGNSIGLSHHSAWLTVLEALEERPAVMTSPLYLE

binding result: no binding (tested: 100 nM)
B1: 39F7 agonistic monoclonal antibody against β-Klotho (full IgG) (antibody, V domains shown)
VH: QVQLVESGGGVVQPGRSLRLSCAASGFTFSNYGIHWVRQAPGKGLEWVAVIWYDGSIKYYADSVKGRFTISRDNSKNTLYLQMNSLRAEDTAVYYCARDRAAAGLHYYYGMDVWGQGTTVTVSS
VL: not shown
notes: Identified from an immunisation campaign in XenoMouse with a complex of β-Klotho and FGFR1c; also called mAb 39F7; 39F7 IgG; copies: 2 + 2
